From patent US20190248848A1 (published 2019)

What was measured:
[1] = target: T1, biotinylated histone H3 peptide trimethylated at lysine 27, H3K27me3 (21-44) (UniProt P68431 22-45, trimethyl-lysine at K27; biotinylated); assay: peptide microspot array; apparent Kd; 10 uM H3K27me3; replicate 2
[2] = target: T1, biotinylated histone H3 peptide …; assay: peptide microspot array; apparent Kd; 50 uM H3K27me3; replicate 1
[3] = target: T1, biotinylated histone H3 peptide …; assay: peptide microspot array; apparent Kd; 20 uM H3K27me3; replicate 3
[4] = target: T1, biotinylated histone H3 peptide …; assay: peptide microspot array; apparent Kd; 50 uM H3K27me3; replicate 2
[5] = target: T1, biotinylated histone H3 peptide …; assay: peptide microspot array; apparent Kd; 10 uM H3K27me3; replicate 3
[6] = target: T1, biotinylated histone H3 peptide …; assay: peptide microspot array; apparent Kd; 10 uM H3K27me3; replicate 1
[7] = target: T1, biotinylated histone H3 peptide …; assay: peptide microspot array; apparent Kd; 20 uM H3K27me3; replicate 2

B1: PcTF, monovalent Polycomb-based transcription factor (pET28 construct, purified from E. coli) (designed binder)
chain: MELSAVGERVFAAEALLKRRIRKGRMEYLVKWKGWSQKYSTWEPEENILDARLLAAFEERER
- Kd [1]: 1.55 µM
- Kd [2]: 3.5 µM
- Kd [3]: 6.45 µM
- Kd [4]: 7.73 µM
- Kd [5]: 7.6 µM
- Kd [6]: 1.54 µM
- Kd [7]: 5.66 µM
